Molecular target: Aquifex aeolicus TsaD2B^mut2 tetramer (Aquifex aeolicus | Thermotoga maritima, UniProt O66986 1-335)
Assay: ITC

Sequence of Aquifex aeolicus TsaD2B^mut2 tetramer (O66986 whole entry, chain 1 of 2): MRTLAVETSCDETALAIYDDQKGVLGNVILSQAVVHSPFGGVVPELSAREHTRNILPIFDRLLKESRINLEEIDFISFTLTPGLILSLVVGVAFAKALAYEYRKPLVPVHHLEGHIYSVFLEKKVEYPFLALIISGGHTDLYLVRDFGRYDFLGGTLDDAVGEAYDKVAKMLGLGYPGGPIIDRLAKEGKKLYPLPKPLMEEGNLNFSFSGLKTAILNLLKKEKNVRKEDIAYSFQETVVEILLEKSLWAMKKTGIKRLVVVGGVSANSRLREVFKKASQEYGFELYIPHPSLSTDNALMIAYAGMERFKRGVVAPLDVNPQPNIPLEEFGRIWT
Sequence of Aquifex aeolicus TsaD2B^mut2 tetramer (chain, as listed by the source, chain 2 of 2): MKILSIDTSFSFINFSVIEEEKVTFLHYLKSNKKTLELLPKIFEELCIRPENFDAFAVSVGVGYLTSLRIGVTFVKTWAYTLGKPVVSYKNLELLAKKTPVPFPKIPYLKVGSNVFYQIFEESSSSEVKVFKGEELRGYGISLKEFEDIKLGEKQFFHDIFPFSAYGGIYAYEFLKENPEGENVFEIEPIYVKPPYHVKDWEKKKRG

B1: Aquifex aeolicus TsaE (enzyme)
chain: MELLKEVILESEEDTYKLAEEIAQLLKGSEVICLRGTLGAGKTTFVKALAKALKVKNPSAVRSPTFTLVNEYETDKGKLIHIDLYRVPDFDYSEFIGEGILAVEWEERDKPCDIILEIEILDENKRKVRIYRK
modifications: T. maritima TsaB C-tail WEKKKRG (200-206) grafted after residue 200 of A. aeolicus TsaB (new positions 201-207); C-terminal 6His tag on TsaB omitted; TsaD carries a bound divalent metal (Fe2+ or Zn2+); Cys10 of TsaD seen oxidised (CSO) in the crystal; ITC with TsaE done with AMPPNP/Mg2+
  Kd: 2870 nM
